# B1: Catenin delta-1 (Homo sapiens), O60716-5 (parent)
# chain: MDDSEVESTASILASVKEQEAQFEKLTRALEEERRHVSAQLERVRVSPQDANPLMANGTLTRRHQNGRFVGDADLERQKFSDLKLNGPQDHSHLLYSTIPRMQEPGQIVETYTEEDPEGAMSVVSVETSDDGTTRRTETTVKKVVKTVTTRTVQPVAMGPDGLPVDASSVSNNYIQTLGRDFRKNGNGGPGPYVGQAGTATLPRNFHYPPDGYSRHYEDGYPGGSDNYGSLSRVTRIEERYRPSMEGYRAPSRQDVYGPQPQVRVGGSSVDLHRFHPEPYGLEDDQRSMGYDDLDYGMMSDYGTARRTGTPSDPRRRLRSYEDMIGEEVPSDQYYWAPLAQHERGSLASLDSLRKGGPPPPNWRQPELPEVIAMLGFRLDAVKSNAAAYLQHLCYRNDKVKTDVRKLKGIPVLVGLLDHPKKEVHLGACGALKNISFGRDQDNKIAIKNCDGVPALVRLLRKARDMDLTEVITGTLWNLSSHDSIKMEIVDHALHALTDEVIIPHSGWEREPNEDCKPRHIEWESVLTNTAGCLRNVSSERSEARRKLRECDGLVDALIFIVQAEIGQKDSDSKLVENCVCLLRNLSYQVHREIPQAERYQEAAPNVANNTGPHAASCFGAKKGKGKKPIEDPANDTVDFPKRTSPARGYELLFQPEVVRIYISLLKESKTPAILEASAGAIQNLCAGRWTYGRYIRSALRQEKALSAIADLLTNEHERVVKAASGALRNLAVDARNKELIGKHAIPNLVKNLPGGQQNSSWNFSEDTVISILNTINEVIAENLEAAKKLRETQGIEKLVLINKSGNRSEKEVRAAALVLQTIWGYKELRKPLEKEGWKKSDFQVNLNNASRSQSSHSYDDSTLPLIDRNQKSDKKPDREEIQMSNMGSNTKSLDNNYSTPNERGDHNRTLDRSGDLGDMEPLKGTTPLMQKI
# B2: Catenin delta-1 (Homo sapiens), O60716-29 (parent)
# chain: MIGEEVPSDQYYWAPLAQHERGSLASLDSLRKGGPPPPNWRQPELPEVIAMLGFRLDAVKSNAAAYLQHLCYRNDKVKTDVRKLKGIPVLVGLLDHPKKEVHLGACGALKNISFGRDQDNKIAIKNCDGVPALVRLLRKARDMDLTEVITGTLWNLSSHDSIKMEIVDHALHALTDEVIIPHSGWEREPNEDCKPRHIEWESVLTNTAGCLRNVSSERSEARRKLRECDGLVDALIFIVQAEIGQKDSDSKLVENCVCLLRNLSYQVHREIPQAERYQEAAPNVANNTGPHAASCFGAKKGKGKKPIEDPANDTVDFPKRTSPARGYELLFQPEVVRIYISLLKESKTPAILEASAGAIQNLCAGRWTYGRYIRSALRQEKALSAIADLLTNEHERVVKAASGALRNLAVDARNKELIGKHAIPNLVKNLPGGQQNSSWNFSEDTVISILNTINEVIAENLEAAKKLRETQGIEKLVLINKSGNRSEKEVRAAALVLQTIWGYKELRKPLEKEGWKKSDFQVNLNNASRSQSSHSYDDSTLPLIDRNQKSDKKPDREEIQMSNMGSNTKSLDNNYSTPNERGDHNRTLDRSGDLGDMEPLKGTTPLMQKI
# Variants of: B1
# Conditions: with cadh1_human CDH1, P12830
# Chain of cadh1_human CDH1, P12830 (P12830 whole entry): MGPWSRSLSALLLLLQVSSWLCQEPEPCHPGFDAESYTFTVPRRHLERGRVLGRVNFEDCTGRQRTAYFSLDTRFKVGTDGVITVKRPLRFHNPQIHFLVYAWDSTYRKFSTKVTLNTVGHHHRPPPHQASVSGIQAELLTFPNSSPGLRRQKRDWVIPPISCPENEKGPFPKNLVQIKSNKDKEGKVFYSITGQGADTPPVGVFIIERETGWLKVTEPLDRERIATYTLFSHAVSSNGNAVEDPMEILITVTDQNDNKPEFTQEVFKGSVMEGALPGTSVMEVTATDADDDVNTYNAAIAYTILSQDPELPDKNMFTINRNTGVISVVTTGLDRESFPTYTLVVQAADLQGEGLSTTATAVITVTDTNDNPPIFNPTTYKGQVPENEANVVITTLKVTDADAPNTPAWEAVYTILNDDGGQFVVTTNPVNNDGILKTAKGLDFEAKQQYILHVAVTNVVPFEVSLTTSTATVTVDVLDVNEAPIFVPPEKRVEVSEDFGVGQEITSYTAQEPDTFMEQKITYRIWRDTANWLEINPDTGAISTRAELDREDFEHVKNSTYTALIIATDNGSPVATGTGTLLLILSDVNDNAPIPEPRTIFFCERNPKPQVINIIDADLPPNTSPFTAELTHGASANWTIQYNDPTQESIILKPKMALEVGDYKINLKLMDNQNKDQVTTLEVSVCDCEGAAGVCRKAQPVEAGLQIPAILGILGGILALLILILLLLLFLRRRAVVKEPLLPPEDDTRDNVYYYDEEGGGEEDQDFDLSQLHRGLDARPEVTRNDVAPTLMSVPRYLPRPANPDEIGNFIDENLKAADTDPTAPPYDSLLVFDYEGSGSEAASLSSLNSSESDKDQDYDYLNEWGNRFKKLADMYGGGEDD
row,Variant,effect of a mutation on the interaction
1,K401M,decreasing interaction
2,N478A,decreasing interaction

# Variants of: B2
# Conditions: with cadh1_mouse Cdh1, P09803
# Chain of cadh1_mouse Cdh1, P09803 (P09803 whole entry): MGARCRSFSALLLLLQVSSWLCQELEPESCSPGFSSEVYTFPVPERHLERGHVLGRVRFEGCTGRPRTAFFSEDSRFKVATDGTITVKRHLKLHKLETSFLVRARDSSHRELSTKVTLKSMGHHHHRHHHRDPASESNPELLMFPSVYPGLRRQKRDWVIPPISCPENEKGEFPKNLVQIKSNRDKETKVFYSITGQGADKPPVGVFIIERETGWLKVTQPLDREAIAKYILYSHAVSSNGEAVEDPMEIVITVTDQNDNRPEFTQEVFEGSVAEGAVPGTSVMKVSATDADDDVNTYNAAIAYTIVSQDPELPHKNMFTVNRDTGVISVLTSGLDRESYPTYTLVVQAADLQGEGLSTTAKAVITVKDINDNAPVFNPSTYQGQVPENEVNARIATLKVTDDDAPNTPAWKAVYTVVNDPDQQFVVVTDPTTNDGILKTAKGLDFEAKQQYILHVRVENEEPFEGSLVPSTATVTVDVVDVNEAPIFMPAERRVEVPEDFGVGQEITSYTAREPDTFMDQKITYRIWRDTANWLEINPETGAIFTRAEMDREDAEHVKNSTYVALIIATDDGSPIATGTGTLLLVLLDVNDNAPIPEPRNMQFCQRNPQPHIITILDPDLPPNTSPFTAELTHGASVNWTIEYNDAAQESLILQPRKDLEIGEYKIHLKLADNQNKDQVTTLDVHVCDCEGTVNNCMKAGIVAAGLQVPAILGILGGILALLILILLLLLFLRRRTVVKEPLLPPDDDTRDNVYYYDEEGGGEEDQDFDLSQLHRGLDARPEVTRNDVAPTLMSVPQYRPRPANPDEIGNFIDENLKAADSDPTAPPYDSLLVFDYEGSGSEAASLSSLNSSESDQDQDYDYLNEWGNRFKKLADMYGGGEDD
row,Variant,effect of a mutation on the interaction
1,N155A,disrupting interaction
2,W154A,decreasing interaction
3,K121M,disrupting interaction
4,K78M,disrupting interaction
